# PMC314469, “Protein Interaction Networks by Proteome Peptide Scanning” (PLoS Biology, 2004)
# Biological target: Sho1 SH3 (SHO1_YEAST), P40073
# Assay: SPOT array
# Chain of Sho1 SH3 (SHO1_YEAST), P40073 (P40073 295-366): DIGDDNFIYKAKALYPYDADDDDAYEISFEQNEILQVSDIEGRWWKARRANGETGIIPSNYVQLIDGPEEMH
row,"normalised SPOT signal, Boehringer light units (BLU); mean over the file's lines of this peptide",Binder
1,157,ERDPNAPKKPLTVF [100-113 35 kDa protein belonging to the high mobility group (HMG) fanily of proteins]
2,441,FISPHLPMKGRLVL [471-484 Hypothetical ORF]
3,53.7,ESHPELPNKDVKLD [158-171 putative methylenetetrahydrofolate reductase (mthfr)]
4,75.3,DYQPLSPPRELDPD [249-262 Hypothetical ORF]
5,333,DSLPKLPFRSWGQP [490-503 Amino acid permease]
6,105,SREPEVPQRLLTLI [250-263 Hypothetical ORF]
7,37.1,DGRPHSPLRARSAT [51-64 Involved in protecting the cell against bleomycin damage]
8,164,EMIPSSPQRKSVSN [51-64 Product of gene unknown]
9,214,FPYPGNPLKIINYE [862-875 Pho85 kinase inhibitor]
10,130,EANPDNPKKLDLKA [783-796 Hypothetical ORF]
11,102,"ELEPQHPLRHKSSL [53-66 ""glucose repression protein, a component of the Snf1 complex""]"
12,162,FFHPAIPLKNAAPF [112-125 Hypothetical ORF]
13,182,EVSPVEPKRTENER [687-700 putative serine/threonine kinase]
14,127,ELDPISPLKVPLTA [276-289 involved in cell wall biogenesis]
15,132,DVYPHEPAKNGEGS [311-324 3-phosphoglycerate dehydrogenase]
16,69.7,ENAPANPSKALKVK [549-562 Arf-binding protein]
17,164,ENKPFKPPRRVGSN [41-54 Putative helicase similar to RAD54]
18,96.8,DSLPFAPLRKVYEL [139-152 Hypothetical ORF]
19,773,"FRFPRLPQKKKEEL [106-119 "" mRNA guanylyltransferase (mRNA capping enzyme), alpha subunit""]"
20,178,ENVPLYPSRRNIWE [81-94 Hypothetical ORF]

row,"normalised SPOT signal, Boehringer light units (BLU); mean over the file's lines of this peptide",Binder
1,115,DVLPAGPVRSLEGA [122-135 Hypothetical ORF]
2,105,EYHPIKPLRSSSST [234-247 Hypothetical ORF]
3,132,EILPQAPAKKVFES [379-392 Hypothetical ORF]
4,0,EHKPVSPDKIGTFT [81-94 transcription factor]
5,164,FSHPLSPLKSNFID [74-87 Hypothetical ORF]
6,183,EIAPLIPKKPALRK [597-610 component of vacuolar membrane protein complex]
7,121,FPYPFKPSRVGVKY [440-453 Hypothetical ORF]
8,161,ELPPTHPIRLGLAL [164-177 Homolog of mammalian 14-3-3 proteins;member of conserved eukaryotic 14-3-3 gene family]
9,27.7,FDFPLSPVKHENPT [196-209 Product of gene unknown]
10,5100,EIPPPLPPKIMVHS [528-541 Ubiquitin-specific protease]
11,91,DFTPVEPSKMREYI [629-642 MCM3 protein homolog (S. cerevisiae)]
12,87.8,DYLPQHPHRTSSLP [109-122 scaffold protein for MAP kinase cascade]
13,483,FLPPPKPFRHTETK [587-600 Hypothetical ORF]
14,202,DSGPQRPKRTRAKG
15,884,FQPPPKPFRRSQSS [657-670 Hypothetical ORF]
16,86.7,EAAPQLPSRSSAAP [505-518 Actin binding protein]
17,207,DDTPSIPSKISSKS [1313-1326 component of the mitotic spindle]
18,166,FPDPNNPSKVQIRM [375-388 transcription factor]
19,183,DERPFRPKRTSRSA [149-162 Hypothetical ORF]
20,224,DYLPPVPEKNAGKQ [274-287 Mitochondrial ribosomal protein MRPL35 (YmL35)]

row,"normalised SPOT signal, Boehringer light units (BLU); mean over the file's lines of this peptide",Binder
1,163,EIAPSLPSRNSIPA [471-484 Actin binding protein]
2,96.8,DESPIDPSKAPKVP [350-363 Hypothetical ORF]
3,56.7,EYFPISPEKKEEME [591-604 Hypothetical ORF]
4,168,DHKPENPIRTFKDL [90-103 uridine permease]
5,102,"ELPPIKPPRPTSTT [619-632 "" contains 3 SH3 domains, interacts with Bee1p""]"
6,275,FHDPILPRRTSTFL
7,83.8,ERDPNMPKRPTNAY [88-101 HMG1-box containing protein]
8,32.8,ETVPTEPTRYNYQN [1359-1372 negative regulator of early meiotic gene expression]
9,91,DSIPVDPEKVVAIV [216-229 acetyl CoA hydrolase]
10,477,DRPPDVPRKIIVGR [301-314 ubiquitin carboxyl-terminal hydrolase]
11,144,DPLPYSPLKLYDQK [382-395 Transcription factor (fork head domain)]
12,183,EYSPLVPSKMSADK [356-369 mitochondrial protein; (putative) chaperone]
13,133,DSIPLEPKKAKHLM [82-95 50-kDa subunit of ORC]
14,176,DQAPSLPPKPNTQL [158-171 homologous to mouse and human Tsg101 tumor susceptibility genes]
15,220,"DLQPLEPKKAAAST [805-818 "" contains 3 SH3 domains, interacts with Bee1p""]"
16,224,DELPSPPLRMVHID [237-250 Hypothetical ORF]
17,45.8,ENFPIVPLKSVAQD [638-651 transcription factor]
18,281,EILPVKPTKKSSKK [808-821 involved in bud site selection]
19,65.8,DLPPKFPEKPVHLV [186-199 Hypothetical ORF]
